Results from article PMC5438308, “Structural and dynamic insights into the role of conformational switching in the nuclease activity of the Xanthomonas albilineans Cas2 in CRISPR-mediated adaptive immunity” (Structural Dynamics, 2017).

Biological target: the molecule itself
Test: SEC

B1: Xanthomonas albilineans Cas2 (enzyme)
chain: MMVLVSYDVSTSSPGGDKRLRKVAKACRDLGQRVQFSVFEIEVDPAQWTALRQRLCDLIDPDIDSLRFYHLGAKWEARVEHVGAKPSLDLKGPLIF
notes: Cas2 of Xanthomonas albilineans, subtype I-C CRISPR-Cas system; synthetic cas2 gene in pET21a; residue numbers in the structure run to 96 (C-terminal tails 87-96 / 86-96 not modelled); also called XaCas2; WT XaCas2; not shown: His6, C-terminal, kept
stoichiometry N: 2
